This assay has as its target TmMre11 (TM1635) truncated construct, residues 1-324 (Thermotoga maritima) (UniProt Q9X1X0). Description: crystal structure.

Here are results for one substance from PMC2839085.

A word on the stoichiometry N: it is a count of units in the complex or per binding partner.

With “TmMre11 (TM1635) truncated construct, residues 1-324 (from UniProt Q9X1X0 1-324) (domain or fragment)”, the stoichiometry N was 2.
